Several values for one entry are separate records, joined by “and”; a condition that tells them apart may be missing. Equal values may be shown once.

The data set deals with the molecule itself. The experiment in a line: cross-linking; HEK293F cells singly transfected with EGFP-tagged β3 constructs; lysate (Hanks' balanced salt solution, 1% Triton X-100, 0.2% SDS, 0.5% sodium deoxycholate) incubated with BS3 (5 mM) for 1 h at 4 °C, quenched with glycine; SDS-PAGE and anti-GFP Western blot. For orientation: A western blot detects proteins with antibodies after separation by electrophoresis.

B1: full-length WT β3-subunit with C-terminal EGFP tag (natural protein, human, UniProt Q9NY72 23-215, looked up)
chain: FPVCVEVPSETEAVQGNPMKLRCISCMKREEVEATTVVEWFYRPEGGKDFLIYEYRNGHQEVESPFQGRLQWNGSKDLQDVSITVLNVTLNDSGLYTCNVSREFEFEAHRPFVKTTRLIPLRVTEEAGEDFTSVVSEIMMYILLVFLTLWLLIEMIYCYRKVSKAEEAAQENASDYLAIPSENKENSAVPVEE
notes: voltage-gated sodium channel auxiliary β3-subunit, full-length; glycosylated (multiple bands on SDS-PAGE); also called WT-β3-EGFP; FL β3-EGFP; source: HEK293F, transfected (pcDNA3 WT-β3-EGFP), in lysate; not shown: EGFP, C-terminal, kept
As usually defined, the stoichiometry N is the number of molecules, sites or subunits per partner or assembly. In the case of B1, the “stoichiometry N” value was 2 and 3.

B2: full-length β3-subunit E176K with C-terminal EGFP tag (natural protein, human, UniProt Q9NY72 23-215, looked up)
chain: FPVCVEVPSETEAVQGNPMKLRCISCMKREEVEATTVVEWFYRPEGGKDFLIYEYRNGHQEVESPFQGRLQWNGSKDLQDVSITVLNVTLNDSGLYTCNVSREFEFEAHRPFVKTTRLIPLRVTEEAGEDFTSVVSEIMMYILLVFLTLWLLIKMIYCYRKVSKAEEAAQENASDYLAIPSENKENSAVPVEE
notes: voltage-gated sodium channel auxiliary β3-subunit, full-length, with E176K in the transmembrane region; residues numbered from the start codon of the cDNA; Made by site-directed mutagenesis of WT-β3-EGFP; also called β3-E176K-EGFP; E176K-EGFP; source: HEK293F, transfected, in lysate; not shown: EGFP, C-terminal, kept
For the protein B2, the “stoichiometry N” value was 2 and 3.

Values taken from article PMC6926464, “Gating control of the cardiac sodium channel Nav1.5 by its β3-subunit involves distinct roles for a transmembrane glutamic acid and the extracellular domain” (The Journal of Biological Chemistry, 2019).
